# Test results published in paper PMC8502904, “Glyceraldehyde-3-phosphate dehydrogenase present in extracellular vesicles from Leishmania major suppresses host TNF-alpha expression”.
# Key:
# [1] = biological target: T1, LmGAPDH (glyceraldehyde-3-phosphate dehydrogenase) (Leishmania major (strain 5ASKH), UniProt Q4Q6Z5 1-361); experiment: EMSA; no complex also at higher LmGAPDH concentrations; conditions: protein: recombinant; tags: His tag (pET15B NdeI/BamHI, Ni-NTA); chain copies: 4; label: 3' biotin; single strand
# [2] = biological target: T1, LmGAPDH (glyceraldehyde-3-phosphate …); experiment: EMSA; concentration dependent; supershift with anti-LmGAPDH; conditions: protein: recombinant; tags: His tag (pET15B NdeI/BamHI, Ni-NTA); chain copies: 4; label: 3' biotin; single strand
# [3] = biological target: T1, LmGAPDH (glyceraldehyde-3-phosphate …); experiment: competition; about 200-fold excess unlabeled RNA competes with labeled N1; conditions: protein: recombinant; tags: His tag (pET15B NdeI/BamHI, Ni-NTA); chain copies: 4; label: none; single strand
binder,measurement,setting,value
AGAACAUCUUGGAAAUAGCUCCCAGAAAAGCAAGCAGC (ssRNA) [TNF-alpha 5'-UTR oligonucleotide],binding result,[1],no binding
GUGAUUAUUUAUUAUUUAUUUAUUAUUUAUUUAUUUAG (ssRNA) [TNF-alpha 3'-UTR ARE38],binding result,[2],binds
"GUGAUUAUUUAUUAUUUAUUUAUUAUUUAUUUAUUUAG (ssRNA) [TNF-alpha 3'-UTR ARE38, unlabeled competitor]",binding result,[3],binds
